In the nanobody polyreactivity screen of Harvey et al. (2022):

Experiment: yeast display, Sf9 membrane polyspecificity reagent, FACS + sequencing; frameworks hold sequencing errors
Method in brief: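 In a synthetic yeast display library (Saccharomyces cerevisiae BJ5465), nanobody expression was induced with galactose for 36–48 hours. FACS gates were set low and high (top ~1%) using anti-HA fluorescence for expression and streptavidin fluorescence for binding of the Sf9 membrane reagent. Each polyreactivity label is drawn from the gate of origin.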

Sequence	polyreactivity (PSR sort gate)
QVQLVESGGGLVQAGGSLRLSCAASGIIFDSYTMGWYRQAPGKERELVAAISVSGGSTYYADSVKGRFTISRDNAKNTVYLQMNSLKPEDTAVYYCATVPSLPDYDSWGQGTQVTVSS	low polyreactivity
QVQLVESGGGLVQAGGSLRLSCAASGIIFDWYAMGWYRQAPGKERELVAAISYSGGTTYYADSVKGRFTISRDNAKNTVYFQMNSLTPEDTAVYYCAARYEGAAANYVEYGYWGLGTQVTVSS	low polyreactivity
QVQLVESGGGLVQAGGSLRLSCAASGIIFDYNAMGWYRQAPGKERELVAAITSTDNTNYADSVKGRFTISRDNAKNTVYLQMNSLKPEDTAVYYCNSVYWLSVVYAMDYWGQGTQVTVSS	low polyreactivity
QVQLVESGGGLVQAGGSLRLSCAASGIIFDYNAMGWYRQAPGKERELVAAITSTDNTNYADSVKGRFTISRDNAKNTVYLQMNSLKPEDTAVYYCNTDYLLCVVYAMDYCGQGTQVTVSS	low polyreactivity
QVQLVESGGGLVQAGGSLRLSCAASGIIFDYYDMGWYRQAPGKERELVAAISDDGGSTYYADSVKGRFTISRDNAKNTVYLQMNSLKPEDTAVYYCAADSYYAYPYGYGYWGQGTQVTVSS	high polyreactivity
QVQLVESGGGLVQAGGSLRLSCAASGIIFEGNVMGWYRQAPGKERELVAAITSDTSTNYADSVKGRFTISRDNAKNSVYLQMNSLKPEDTAVYYCDALRRYPRPNIYGYWGQGTQVTVSS	low polyreactivity
QVQLVESGGGLVQAGGSLRLSCAASGIIFEYYAMGWYRQAPGKERELVAAISKRGGSTYYADSVKGRFTISRDNAKNTVYLQMNSLKPEDTAVYYCNARRWWVIRDYWGQGTQVTVSS	high polyreactivity
QVQLVESGGGLVQAGGSLRLSCAASGIIFEYYDRGWYRQAPGKERELVAAIDSGGSTYYADSVKGRFTISRDNAKNTVYLQMNSLKPEDTAVYYCAAETVRYDWGESPAALFDYWGQGTQVTVSS	low polyreactivity
QVQLVESGGGLVQAGGSLRLSCAASGIIFEYYTMGWYRQAPGNERELVASITYDGDSTYYADSVKGRFTISRDHAKNTVYLQINSLKPEDTAVYFCAADYYYVYSSFGHYYWGQGTQVTVSS	low polyreactivity
QVQLVESGGGLVQAGGSLRLSCAASGIIFFDYAMGWYRQAPGKERELVAAITSSGGSTYYADSVKGRFTISRDNAKNTVYLQMNSLKPEDTAVYYCAAATRGSGRRNDYWGQGTQVTVSS	high polyreactivity
QVQLVESGGGLVQAGGSLRLSCAASGIIFFIYAMGWYRQAPGKERELVARISWRGGSTSYADSVKGRFTISRDNAKNTVYLQMNSLKPEDTAVYYCAAGVYSFRYDSWGQGTQVTVSS	low polyreactivity
QVQLVESGGGLVQAGGSLRLSCAASGIIFFKYAKGWYRQAPGKEKELVAAITSGGSTYYADSVKGRFTISRDNAKHTVYLQMNSLKPEDTAFYYCAAAGGRFIRYGYWGQGTQVTVSS	high polyreactivity
QVQLVESGGGLVQAGGSLRLSCAASGIIFFKYAMGWYRQAPGKERQLVAAITSGGSTYYADSVKGRFTISRDNEKNTVYLQMNSLKPVDTAVYYCAAAGGRFIRYGYWGQGTQVTVSS	high polyreactivity
QVQLVESGGGLVQAGGSLRLSCAASGIIFFRNAMGWYRQAPGKERELVAAISSGGSTYYADSVKGRFTISRDNAKNTVYLQMNSLKPEDTAVYYCNKVVPLYYASYDYWGQVTQVTVSS	low polyreactivity
QVQLVESGGGLVQAGGSLRLSCAASGIIFFRNPMGWYRQAPGKERELVAAISSGGSTYYADSVKGRFTISRDNAKNTVYLQMNSLKPEDTAVYYCNQVGPLYYASYDYWGQGTQGTVSS	low polyreactivity
QVQLVESGGGLVQAGGSLRLSCAASGIIFGDYAMGWYRQAPGKERELVAGISITGDSTYYADSVKGRFTISRDNAKNTVYLQMNSLKPEDTAVSYCAAGWALIFDYWGQGTQVTVSS	low polyreactivity
QVQLVESGGGLVQAGGSLRLSCAASGIIFGEYPMGWYRQAPGKERELVAAISWSGGSTYYADSVKGRFTISRDNAKNTVYLQMNSLKPEDTAVYYCNPLPDIVIGGIIGYDYWGQGTQVTVSS	high polyreactivity
